US20190077858A1 (KM BIOLOGICS, published 2019)

Assays:
[1] = biological target: chymase cleavage-type IL-18 (UniProt Q14116); experiment: cell-based or functional assay
[2] = biological target: human cell-derived natural IL-18 (human) (UniProt Q14116); experiment: cell-based or functional assay
[3] = biological target: T1, rat IL-18 (Acris Antibodies GmbH) (rat, UniProt P97636 37-194, limits assumed, biotinylated (Biotin-PEAC5-maleimide or Biotin-AC5 Sulfo-OSu)); experiment: ELISA on biotinylated cytokine on streptavidin plates
T1 construct: also called biotinylated rat IL-18
T1 sequence (looked up): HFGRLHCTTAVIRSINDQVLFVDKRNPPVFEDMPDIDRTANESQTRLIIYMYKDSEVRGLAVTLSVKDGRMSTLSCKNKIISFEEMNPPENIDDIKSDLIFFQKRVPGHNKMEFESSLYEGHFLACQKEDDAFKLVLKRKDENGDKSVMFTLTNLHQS

[4] = biological target: T2, human IL-33 (MBL Medical & Biological Laboratories, Co., Ltd.) (human, UniProt O95760 112-270, limits assumed, biotinylated (Biotin-PEAC5-maleimide or Biotin-AC5 Sulfo-OSu)); experiment: as above
T2 construct: also called biotinylated human IL-33
T2 sequence (looked up): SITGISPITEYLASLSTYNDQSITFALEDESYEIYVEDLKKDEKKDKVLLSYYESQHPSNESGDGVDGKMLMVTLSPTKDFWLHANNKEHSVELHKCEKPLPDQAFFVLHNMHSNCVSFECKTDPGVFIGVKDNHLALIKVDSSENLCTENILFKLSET

[5] = biological target: T3, mouse IL-18 (MBL Medical & Biological Laboratories, Co., Ltd.) (mouse, UniProt P70380 36-192, biotinylated (Biotin-PEAC5-maleimide or Biotin-AC5 Sulfo-OSu)); experiment: as above
T3 construct: also called biotinylated mouse IL-18
T3 sequence (looked up): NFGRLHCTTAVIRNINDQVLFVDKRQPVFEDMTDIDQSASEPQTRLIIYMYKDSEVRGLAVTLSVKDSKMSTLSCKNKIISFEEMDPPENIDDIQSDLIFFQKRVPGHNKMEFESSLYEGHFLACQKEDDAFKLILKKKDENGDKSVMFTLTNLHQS

[6] = biological target: T4, human IL-1β (Funakoshi Corp.) (human, UniProt P01584 117-269, biotinylated (Biotin-PEAC5-maleimide or Biotin-AC5 Sulfo-OSu)); experiment: as above
T4 construct: also called biotinylated human IL-1β

[7] = biological target: T5, human IL-18 (MBL Medical & Biological Laboratories, Co., Ltd.) (human, UniProt Q14116 37-193, biotinylated (Biotin-PEAC5-maleimide or Biotin-AC5 Sulfo-OSu) in the streptavidin plate ELISAs and the panning; not labelled in the receptor binding and KG-1 assays); experiment: ELISA, biotinylated human IL-18 on streptavidin plate, HRP detection antibody, O.D. 450nm/650nm
T5 construct: Bought protein; also called human interleukin-18; biotinylated human IL-18
T5 sequence (looked up): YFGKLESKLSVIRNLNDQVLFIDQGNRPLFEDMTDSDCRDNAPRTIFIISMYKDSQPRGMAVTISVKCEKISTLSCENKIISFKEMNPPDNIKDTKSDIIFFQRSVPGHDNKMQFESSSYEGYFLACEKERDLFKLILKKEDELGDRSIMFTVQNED
Procedure: The binding activity of the obtained scFv phages, scFv, and IgG prepared by a standard method (conventional method) was evaluated by ELISA. The biotinylated human IL-18 or the biotinylated mouse IL-18 was diluted to 1 μg/mL with PBS (Sigma-Aldrich Corp.), added at 100 μL/well to Streptavidin plates (Nunc), and incubated at room temperature for 2 hours to immobilize the IL-18. After the immobilization, the plates were washed with PBST, and each obtained scFv phage, scFv, or IgG was added at 100 μL/well to the plates and incubated at 37° C. After 1 hour, the plates were washed with PBST, and a detection antibody anti-M13/HRP (GE Healthcare Japan Corp.), anti-His tag/HRP (Bethyl Laboratories, Inc.), anti-V5 tag/HRP (Bethyl Laboratories, Inc.), anti-mouse IgG/HRP (Invitrogen Corp.), or anti-hFc/HRP (Cosmo Bio Co., Ltd., The binding site) was added at 100 μL/well to the plates and incubated at 37° C. After 1 hour, the plates were washed with PBST, and TMB (Sigma-Aldrich Corp.) was added at 100 μL/well to the plates to develop color. After 30 minutes, the reaction was terminated with 2 N sulfuric acid, and the color values (O.D. 450 nm/650 nm) were measured using a microplate reader (Molecular Devices, Inc.).

[8] = biological target: T5, human IL-18 (MBL Medical & Biological …); experiment: cell-based or functional assay
[9] = biological target: T5, human IL-18 (MBL Medical & Biological …); experiment: ELISA: biotinylated human IL-18 on streptavidin plate, anti-mouse IgG/HRP
Procedure: The biotinylated human IL-18 was diluted to 1 μg/mL with PBS (Sigma-Aldrich Corp.), added at 100 μL/well to Streptavidin plates (Nunc), and incubated at room temperature for 1 hour to immobilize the human IL-18. The plates were washed with PB ST, and human IL-18BPa-hFc (R&D Systems, Inc.) diluted to 10 μg/mL with 1% BSA-PBS was added at 100 μL/well to the plates and incubated at 37° C. for 1 hour to form a complex of IL-18 and IL-18BP. The plates were washed with PBST, and 4A6D scFv-mFc was added at 100 μL/well to the plates and incubated at 37° C. After 1 hour, the plates were washed with PBST, and a detection antibody anti-mouse IgG/HRP (Invitrogen Corp.) was added at 100 μL/well to the plates and incubated at 37° C. After 1 hour, the plates were washed with PBST, and TMB (Sigma-Aldrich Corp.) was added at 100 μL/well to the plates to develop color. After 30 minutes, the reaction was terminated with 1 M sulfuric acid, and the color values (O.D. 450 nm/650 nm) were measured using a microplate reader (Molecular Devices, Inc.).

[10] = biological target: T5, human IL-18 (MBL Medical & Biological …); experiment: panning of an scFv phage library on biotinylated human IL-18 on streptavidin magnetic beads

## Negative control antibody
[1]
  Amount of IFN-γ produced: 109 pg/mL
[2]
  Amount of IFN-γ produced: 134 pg/mL

B1: IgG molecule-type 4A6S (antibody, V domains shown)
VH: EVQLVESGGGLVQPGGSMRLSCTASGFTFSEYAMSWVRQAPGKGLEWVSGISTGGGGTYYADSVEGRFTISRDNSKNTLYLQMNSLRAEDTAVYYCAKPWLSGSRSGDFWGQGTLVTVSS
VL: QSALTQPASVSGSPGQSITISCTGTSSDVGGYNYVSWYQQHPGKAPKLLIYEVSHRPSGVSDRFSGSKSGNTASLTISGLQAEDEADYYCSSFTSSSSLYVFGTGTKLTVL
notes: IgG prepared by a standard method; also called human anti-human IL-18 antibody 4A6S
[3]
  binding result: no binding
[4]
  binding result: no binding
[5]
  binding result: no binding
[6]
  binding result: no binding
[7]
  EC50 (read off the curve): ~0.02 µg/mL
[8]
  Neutralizing ability (IC50, nM): 0.013 nM

B2: 4A6D scFv-mFc (Fc fusion)
scFv: EVQLVESGGGLVQPGGSMRLSCTASGFTFDEYAMSWVRQAPGKGLEWVSGISTGGGGTYYADSVEGRFTISRDNSKNTLYLQMNSLRAEDTAVYYCAKPWLSGSRSGDFWGQGTLVTVSSASTGGGGSGGGGSGGGGSQSALTQPASVSGSPGQSITISCTGTSSDVGGYNYVSWYQQHPGKAPKLLIYEVSHRPSGVSDRFSGSKSGNTASLTISGLQAEDEADYYCSSFTSSSSLYVFGTGTKLTVL
notes: not shown: mouse Fc (mFc) and any junction to it
[9]
  EC50 (read off the curve): ~0.008 µg/mL

B3: 4A6D scFv phage (scFv)
scFv: EVQLVESGGGLVQPGGSMRLSCTASGFTFDEYAMSWVRQAPGKGLEWVSGISTGGGGTYYADSVEGRFTISRDNSKNTLYLQMNSLRAEDTAVYYCAKPWLSGSRSGDFWGQGTLVTVSSASTGGGGSGGGGSGGGGSQSALTQPASVSGSPGQSITISCTGTSSDVGGYNYVSWYQQHPGKAPKLLIYEVSHRPSGVSDRFSGSKSGNTASLTISGLQAEDEADYYCSSFTSSSSLYVFGTGTKLTVL
modifications: displayed on phage
notes: the phage coat fusion is not described; not shown: phage coat protein fusion (display partner) and any tags; not described
[10]
  binding result: binds

B4: 4A6S scFv phage (scFv)
scFv: EVQLVESGGGLVQPGGSMRLSCTASGFTFSEYAMSWVRQAPGKGLEWVSGISTGGGGTYYADSVEGRFTISRDNSKNTLYLQMNSLRAEDTAVYYCAKPWLSGSRSGDFWGQGTLVTVSSASTGGGGSGGGGSGGGGSQSALTQPASVSGSPGQSITISCTGTSSDVGGYNYVSWYQQHPGKAPKLLIYEVSHRPSGVSDRFSGSKSGNTASLTISGLQAEDEADYYCSSFTSSSSLYVFGTGTKLTVL
modifications: displayed on phage
notes: as for B3
[10]
  binding result: binds
